According to US20090215878:

System: ZFP-TF 8982-KRAB
Assay: cell_activity
Conditions: rat DRG neurons, lentiviral; Nav1.8 mRNA vs GFP control; which of SEQ 2 (GAA) or SEQ 3 (CAA) is the rat site is not stated

Sequence: GAAGAAGAATGAGAAGATG (double strand) [Nav1.8 target site (GAA variant)]
- activity (fold repression): 10
